Data from PMC6017673, “Functional Characterization of the Saccharomyces cerevisiae Equilibrative Nucleoside Transporter 1 (ScENT1)” (Molecules : A Journal of Synthetic Chemistry and Natural …, 2018).
Residue numbers refer to the chain shown, from its start. Numbers in names are those of the source.

B1: ScENT1 (FUN26) (Saccharomyces cerevisiae S288C) (protein)
chain: MSTSADTDTIKKPILAVPEPALADTHSEEISRSGEEHESENNEHSDEEGDNYSEREQSVSTEPLDTLPLRKKLKNLSYITFFAIGIGLLWPWNCILSASQYFKHDIFKDTSIWAKIFTSSMMSFSTISSMLFNIYLAKRQYKYSRRVINGLVWEIIVFTVMCFFTILHFLLPKWFNFMFIMMLVVISSMGTAMTQNGIMAIANVFGSEYSQGVMVGQAVAGVLPSLVLFALAFIENSSVSTTGGILLYFFTTTLVVTICVVMFSVSKISRKVNENWNVEDGHITDVLLGSLRSNEEEIRIVGRIDQMEDEDHRRTNGTRDDNDEGEELQLKVPFEVLFAKLKYLVLSIFTTFVVTLVFPVFASATYVTGLPLSNAQYIPLIFTLWNLGDLYGRVIADWPMFRDQKFTPRKTFIYSLLRVAAIPLFLMFTAITSSSSGDEEHNGSVIVDLCYMLLQFLFGVTNGHVISMSFMKVPEQLDNDDEKEAAGGFTNIFVSTGLALGSIISYVFVFIIDFIIR
notes: full-length, poly-His tagged (TALON, SEC), overexpressed in S. cerevisiae W303-delta-pep4, DDM-solubilised, reconstituted in proteoliposomes
B2: ScENT1 (FUN26) (Saccharomyces cerevisiae S288C; F249I) (protein)
chain: B1 chain with F249I
notes: as for B1
B3: ScENT1 (FUN26) (Saccharomyces cerevisiae S288C; L390A) (protein)
chain: B1 chain with L390A
notes: as for B1

Tests used:
Assay in all cases: purified protein
purified protein [1] = substrate: Nc1ccn([C@@H]2O[C@H](CO)[C@@H](O)[C@H]2O)c(=O)n1; details: labelled compound; purified transporter in proteoliposomes
purified protein [2] = substrate: O=c1ccn([C@@H]2O[C@H](CO)[C@@H](O)[C@H]2O)c(=O)[nH]1; assay type: biochemical, Saccharomyces cerevisiae; details: labelled compound; purified transporter in proteoliposomes
purified protein [3] = substrate: O=c1ccn([C@@H]2O[C@H](COP(=O)(O)OP(=O)(O)OP(=O)(O)O)[C@@H](O)[C@H]2O)c(=O)[nH]1; assay type: biochemical, Saccharomyces cerevisiae; details: labelled compound, purified transporter in proteoliposomes

| Protein | Km (purified protein [1]) | Km (purified protein [2]) | Km (purified protein [3]) | Km (purified protein [3]; extrapolated beyond tested concentrations, not saturated) |
| --- | --- | --- | --- | --- |
| B1 | 0.195 µM | 0.327 µM | – | – |
| B2 | 0.452 µM | – | 0.13 µM | – |
| B3 | – | 0.215 µM | – | 2.92 µM |
